The source of these data is the supplement of paper PMC10126150.

± gives the standard deviation of the averaged measurements.
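Further: ATP exposure 15 min at 22 °C before imaging.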

The data set concerns ATP. Put plainly: switch fluorescence ratio, 500 uM ATP over buffer (Cy3 cluster intensity, sum of 5 cycles each) (fold (ratio)); higher = stronger signal-on switching upon ATP binding; sequences stand for … in TCGTCGGCAGCGTCAGATGTGTATAAGAGACAGTTTTTTTTTTTTTTTTTTTTTTTTT…TC. The note with it: aptamer strand: ATP DNA aptamer (quencher-CACCTGGGGGAGTATTGCGGAGGAAGG + anchor), 100 nM annealed; ATP concentration: 500 uM. The method, boiled down:
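Between each of five buffer/ATP cycles, the flow-cell was stripped with NaOH and re-annealed. Each cycle imaged Cy3-labelled switching-strand clusters, annealed to 100 nM quencher-labelled ATP aptamer on a modified Illumina MiSeq flow-cell, first in selection buffer and then after 15 min with 500 uM ATP at 22 °C. The fluorescence ratio is summed target-cycle over summed buffer-cycle Cy3 intensity per cluster, averaged per switch-domain sequence, with clusters outside 100-1000 RFU excluded.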
In the case of ACGATGGAAT, the switch fluorescence ratio turned out to be 1.45 ± 0.056. With CTCGTCCCCG, the switch fluorescence ratio came out at 0.994 ± 0.06. For TCACGGGGTT the value was 1.01 ± 0.039; for AGGGTCATCT, 1.012 ± 0.002; for AGACTCAATG, 0.988 ± 0.07. Regarding TGGACCGGTC, the switch fluorescence ratio came out at 0.996 ± 0.01. As for GGTGAGACTT, the switch fluorescence ratio was found to be 1 ± 0.031. For the sequence CTTACAGCTT, the switch fluorescence ratio came to 1.04 ± 0.023. Consider CTGCTCGTAA, for which the switch fluorescence ratio was 1.99 ± 0.18. In the case of TGTTTGTTGG, the switch fluorescence ratio came out at 0.9887 ± 0.009. AGCTATAAGG: the switch fluorescence ratio stood at 0.982 ± 0.021. Then GCTCATAGCA, with 1.02 ± 0.022; and ATTAAGTGTT, with 0.984 ± 0.042. Consider TATTTGATGG, for which the switch fluorescence ratio came to 0.992 ± 0.021.

Turning to TCTATGGCTA, the switch fluorescence ratio was 1.03 ± 0.03. Turning to AATCATTATT, the switch fluorescence ratio is 1.01 ± 0.017. For the sequence TTTGGTTCTC, the switch fluorescence ratio is 0.977 ± 0.012. Then AACCTGCTCG, with 1.1 ± 0.02; and AATCGGGGTT, with 0.948 ± 0.015; and GTTAAAAGGT, with 1 ± 0.039. For the sequence GACTGGATTG, the switch fluorescence ratio was found to be 0.996 ± 0.06.

Take AAATTGGGCG: the switch fluorescence ratio was found to be 0.983 ± 0.021. Consider ATGGTCGCGG, for which the switch fluorescence ratio was 0.985 ± 0.035. In the case of AGGTTCAGCA, the switch fluorescence ratio was 1 ± 0.013. For ATAAGGCCCG the value was 1.04 ± 0.078; for ATAGTCATAC, 1.25 ± 0.099; for TCCGTTGGGG, 1.05 ± 0.15. As to TTGATTAAGA, the switch fluorescence ratio amounted to 1.06 ± 0.078.

Consider GGAGGTTTGG, for which the switch fluorescence ratio is 0.992 ± 0.044. Turning to GGTTAAGGTG, the switch fluorescence ratio was 1.28 ± 0.071. Consider CCCGGTTTAG, for which the switch fluorescence ratio worked out at 1.03 ± 0.0015.

As to GCAGGCTTGG, the switch fluorescence ratio turned out to be 1.012 ± 0.0061. As for AAGGTATTGC, the switch fluorescence ratio turned out to be 0.9947 ± 0.0061. On to TCAGACAGTT, for which the switch fluorescence ratio turned out to be 0.987 ± 0.0042. Then AGCGTCTGGG, with 1.0291 ± 0.00058; and ACGAGTGTCG, with 0.964 ± 0.04; and TACATGGACC, with 1.12 ± 0.025. Then TGGAAGGGG, with 1.02 ± 0.015.

GTATGGCTAG: the switch fluorescence ratio came to 0.978 ± 0.029. Regarding CAAATGGCTG, the switch fluorescence ratio turned out to be 1.04 ± 0.074.

Turning to CGTTTGGTAG, the switch fluorescence ratio stood at 0.964 ± 0.019. For AAACGCTGCT the value was 1.02 ± 0.062. Then TTACGAAAAG, with 1.08 ± 0.14; and TGAGTGGGTT, with 0.975 ± 0.031; and TTAGCGGCAG, with 0.9883 ± 0.0034. Turning to GTAGTTGATG, the switch fluorescence ratio was determined as 0.9665 ± 0.0026.

In the case of TGCTTGTTAG, the switch fluorescence ratio is 0.989 ± 0.07. GAAGACGTTA: the switch fluorescence ratio turned out to be 1.04 ± 0.023. Turning to GTTCCGCGGT, the switch fluorescence ratio was 1.371 ± 0.0055. On to CGATCAGTTG, for which the switch fluorescence ratio is 0.9853 ± 0.004. TCAGGTGGAG: the switch fluorescence ratio was 1.03 ± 0.041.

In the case of AGTTCGGCTA, the switch fluorescence ratio was determined as 0.998 ± 0.036. Turning to TGGGATGTTG, the switch fluorescence ratio was 1 ± 0.052. With ATGGGGACGG, the switch fluorescence ratio turned out to be 1.013 ± 0.0035. Then TTGAAGTTCG, with 0.986 ± 0.022; and AAATTGGGTA, with 0.991 ± 0.024.

As to GCATGATTTA, the switch fluorescence ratio amounted to 1 ± 0.051.

Regarding GCCGGTGGAT, the switch fluorescence ratio came to 0.9793 ± 0.0084.

For the sequence ACGAAGATGC, the switch fluorescence ratio came to 1.24 ± 0.15. In the case of TAGATGATGT, the switch fluorescence ratio came to 1.004 ± 0.01. On to AGATGGGGTA, for which the switch fluorescence ratio stood at 0.9705 ± 0.0077. For GGGGGGCATG, the switch fluorescence ratio amounted to 0.992 ± 0.035. Turning to ATTGGCTAGG, the switch fluorescence ratio was determined as 0.999 ± 0.037. As to ATTTTGCTCG, the switch fluorescence ratio is 0.999 ± 0.021. As to TTGAAGAGG, the switch fluorescence ratio is 1.02 ± 0.035. With AGATGGGGTT, the switch fluorescence ratio stood at 1.01 ± 0.028. Consider GGGTGAAAAC, for which the switch fluorescence ratio amounted to 1.03 ± 0.014. For the sequence TCGGTATATA, the switch fluorescence ratio stood at 1.03 ± 0.033. For AATAAGGT the value was 1.003 ± 0.0056; for TTTAAACCTT, 1.89 ± 1.2; for ATACTGGGGT, 1.04 ± 0.056.

As for GTTTTCTTGG, the switch fluorescence ratio came to 0.977 ± 0.013. As for AAAATAATCT, the switch fluorescence ratio came to 0.9793 ± 0.004. For the sequence CATTAAGGAG, the switch fluorescence ratio was 1.06 ± 0.092. With GTTTGTACCG, the switch fluorescence ratio was determined as 1 ± 0.051.

As to TCATTTGGAA, the switch fluorescence ratio was found to be 0.99 ± 0.025.

With AATGTCTGTA, the switch fluorescence ratio was found to be 1.01 ± 0.044. Then GGCTTGCTAG, with 1.001 ± 0.0046; and AATAGATAGT, with 0.9929 ± 0.0055.
